Reference: patent publication US20180335429

Assays:
[1] = tested on: T1, thrombin substrate, 5-FAM-GGfPRSGGGK(CPQ2)-PEG2-C, presented on the nanoparticle surface
T1 sequence: GGFPRSGGGKC

[2] = tested on: MMP substrate, 5-FAM-GGPLGVRGKK(CPQ2)-PEG2-C, presented on the iron-oxide nanoparticle (ABN) surface

recombinant MMP-9 (Enzo Life Sciences), sequence (chain, as listed by the source): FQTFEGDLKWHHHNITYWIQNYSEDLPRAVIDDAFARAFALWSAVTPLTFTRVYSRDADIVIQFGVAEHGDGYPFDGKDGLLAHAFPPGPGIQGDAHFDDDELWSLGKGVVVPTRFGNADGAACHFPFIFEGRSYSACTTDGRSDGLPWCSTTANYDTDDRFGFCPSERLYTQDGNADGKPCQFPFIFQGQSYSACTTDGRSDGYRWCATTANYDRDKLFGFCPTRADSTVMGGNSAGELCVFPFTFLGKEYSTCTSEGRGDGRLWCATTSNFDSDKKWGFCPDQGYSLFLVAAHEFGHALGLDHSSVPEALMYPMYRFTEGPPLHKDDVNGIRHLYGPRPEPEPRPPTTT

Row | Substance | cleavage of the substrate at varying linker lengths [1] | cleavage velocity (V) at 6 µM substrate, long tether end [2] | cleavage velocity (V) at 6 µM substrate, short tether end [2] | fold change of cleavage with tether length at 6 µM substrate [2] | cleavage velocity (V) at 6 µM substrate, high end over the tether lengths tested (0, 4, 24 and 114 PEG subunits) [2] | cleavage velocity (V) at 6 µM substrate, low end over the tether lengths tested (0, 4, 24 and 114 PEG subunits) [2]
1 | thrombin (Haematologic Technologies) | thrombin cleavage of a thrombin-selective substrate (fPRSGGG ...) was optimally presented at an intermediate length | V at 6 µM of substrate decreased from 0.29 to 0.01 nM s^-1 | V at 6 µM of substrate decreased from 0.29 to 0.01 nM s^-1 | thrombin cleavage decreased 1-fold at the same substrate concentration |  | 
2 | recombinant MMP-9 (Enzo Life Sciences) |  |  |  | MMP9 cleavage was found to increase 4-fold for 6 µM of substrate | cleavage velocity (V) increased from 0.24 to 0.96 nM s^-1 at 6 µM | cleavage velocity (V) increased from 0.24 to 0.96 nM s^-1 at 6 µM
